These results are taken from PMC6137059.

In this data set the target is TcpK (Clostridium perfringens (plasmid pCW3)) (UniProt Q1PLI2). Put plainly: SPR. The conditions noted are these: SPR: 10 mM HEPES pH 7.4, 200 mM NaCl, 3 mM EDTA, 0.05% Tween 20, 20 C.
As to “AAGGAACTTTACAAGGAACTTTA (double strand) [linker CAA]”, the binding signal came to 25 % Rmax.

Take “AAGGAACTTTACAGGGAACTT (double strand) [R2L10]”: the binding signal was found to be 55 % Rmax.

“AAGGAACTTTACAGGGAACTTTA (double strand) [R2L9]” showed a binding signal of 100 % Rmax.

For orientation: Kd means the free concentration of one partner at which half of the binding sites on the other are occupied at equilibrium, for simple one-to-one binding. Lower therefore signals tighter binding. In the case of “AAGGAACTTTACAGGGAACTTTA (double strand) [oriTmin23 (SPR)]”, the equilibrium dissociation constant (Kd) was 360 nM.

Sequence “AAGGAACTTTACAGGGAACTTTAAAAATTT (double strand) [oriT#1 (SPR)]” gave a dissociation constant Kd of 521 nM. This Kd and that of the sequence before are within 1.5-fold of each other.

For the sequence “AAGGAACTTTACAGGGAACTTTAAAAATTTAAATTGATA (double strand) [R2L1]”, the binding signal amounted to 100 % Rmax.

“ACAGGGAACTTTAAAAATTTAAATTGATAT (double strand) [oriT#2 (SPR)]” yielded an equilibrium dissociation constant (Kd) of 2580 nM.
